Experimental data taken from doi:10.1101/2021.01.25.428185 (bioRxiv, 2021).
Numbering of substitutions follows the chain as printed.

Assays:
[1] = target: T1, GST-Rab11A(CA), mouse Rab11A(Q70L), GTPγS-loaded (mouse, UniProt P62492 1-216, Q70L); experiment: pull-down
T1 sequence (looked up): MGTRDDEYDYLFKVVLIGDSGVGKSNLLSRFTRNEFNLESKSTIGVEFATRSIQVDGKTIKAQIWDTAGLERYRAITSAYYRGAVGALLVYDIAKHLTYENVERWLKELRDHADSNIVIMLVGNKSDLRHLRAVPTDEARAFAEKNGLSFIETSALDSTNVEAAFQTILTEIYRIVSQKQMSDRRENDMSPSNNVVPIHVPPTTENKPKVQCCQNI

[2] = target: T2, GST-Rab11A(CN), mouse Rab11A(N124I), GDP-loaded (mouse, UniProt P62492 1-216, N124I); experiment: pull-down
T2 sequence (looked up): T1 sequence (looked up) with L70Q, N124I

B1: T7-tagged Rab11-FIP2-C (domain or fragment, mouse, UniProt G3XA57 389-512, looked up)
chain: PSAFSENRQDYFEYESTNPFTAKFRASTIMPSSSFHVNPTSSEDLRKIPDNNPFDATAGYRSLTYEEVLQELVKHKELLRRKDTHIRELEDYIDNLLVRVMEETPSILRVPYEPSRKAGKFTNS
- binding result [1]: binds
- binding result [2]: binds
